This test deals with SARS-CoV-2 receptor binding domain, omicron subvariant BA5 (RBDBA5) (UniProt P0DTC2). Description: SPR.
Turning to antibody 10-40 H:G27S, the ratio to parent turned out to be 0.79.
One may read the Kd as the constant that tells how readily two partners part at equilibrium. Read a low Kd as higher affinity. In the case of antibody 10-40 H:R100bI, the dissociation constant Kd amounted to 69.5 pM and the ratio to parent amounted to 3.83.
Turning to antibody 10-40 H:R100bI; H:S32H, the Kd amounted to 2.05 pM and the ratio to parent was determined as 130.
antibody 10-40 H:R100bI; H:S32H; L:Q53F had a Kd of 0.05 pM.
Regarding antibody 10-40 H:R100bL, the Kd came out at 155 pM and the ratio to parent was 1.72.
Regarding antibody 10-40 H:S98R, the ratio to parent was 0.26.
With antibody 10-40 L:D51W, the ratio to parent stood at 0.5.
For the substance antibody 10-40 L:Q53F, the Kd was determined as 188 pM and the ratio to parent turned out to be 1.42.

Source of the values: PMC10235760.
